Experimental data as given in the DeepSol protein solubility set.

Test: soluble on expression in E. coli; label from the status in PepcDB or PDB records

Sequence | soluble on expression in E. coli
MAHHHHHHMLQEYTGERCVSYRVNPQRGGCVETVAEVDAQDFFTEPGGLVTSPTTPSTPAGSTSARQARRRVVTTLERILLPDGYPSSVTEDLLPFALWDLAQVLAKNVTATLSTRAVLLGVGVGESKADLTSATLSWMMQDGTRMIGSVVFAPLIPQGLECRAKTWQLVADFTTDIANLLELCAPWLPGGQTTFRVVLVAASVVKALGSVCRNCTRASFTRHFALRNNAADIAAKASTRSSVGSFIGLVLGVAVAYIVPATSRSLNLVVFALGSVLHIFASYRSVRGVQLKHLNAPRLEWCLVQYSLFEAKVLIASKKDSGPLSVMPILDVSPRSANAAERLLILPSLRAVPPPSDSFYDSVRGFLCRYCFPPTLTLRIHCGASLFRLLQHQRGLTTRCKHELVQQVESALASRGIALLVDDVDMTYYVILPEYFTVEGVPAMWVRYKRQYGDDLTCMEAKQRQSAAARAAQRRQDGAASLSPSGAAVAAPDAGHGLDEAGRRAAQAEAELERLQKERVVVPPHILPLAYRQLWAYFYAFMHYRAVRLRREGPLTHAKDVLEGLHKNRSLECQRLHIITALRADGTLEAGHSDASDVPHSPAQFEEITSPASTTSDVPLERRVVPALATRAGGDDGDDGDNTAAPSYDGLHPQFIEFVRALRMTGWELDELLVGNEGYTTVVHYL | not soluble
MSFGKIVVFLVLVLVQLIHCTRFTAPSLDRTIYYRNTPPDPFGHYSFEFQTTNGITTKGAGNENGAVGVVQFVSPEGIPVTFSYVADANGYQPTGDHIPAIPLHVIRQLEYIRTHPPVDEIRSRRWLEHHHHHH | not soluble
LTYLNYYGKEKPELVYTKIAQSSQQDAFNISKRSQKEMDKQKTWAMVLNQDGQIVQSYRLPQQLKRHYTNADMVKFSRWYLDDYPVFSYVRGQQILVFGYPKKYSLAKFNFYLNTQFIK | not soluble
METEIPVNEKETSFRRRVYTTIETLIDIENTDQLQEHLPHLHCLGWDEVVEERYVNKQCGFPSCQKAPPKITRNQMFEIDRKEGKIFEFRKQRAKFCSEMCYQKSSFVRKQLDEHPLWITGLTEARTQKVYEVPDESFVSPIAEKSEPVDSQFKKEPSIWLVTDSIIAKVQDMKLSEEAEEPKSLDPEDQDIEPFKLTDDDKDFIKSIKEFRNSNFGPPSTSKLLKTAPKPVLSAKDRKKEDEVLAKLRAKYGNKNALQKKPPILIEAQEIHSKLKTMEKAKEAWLVDLIKSWFTPETRKLVREGARPTGGAAEQILMDFLSGKKVDAEKLVNLPNLDKYNVKEKRLNIFLHSIRNHWMDLEARLHLTPTRRDILSRVASTFQLDSENITGWTKREINSIVIALFIVICLVDVELGDDYFKKDNASPELTAISNELCGLDSFQITGLHAAIKSQC | not soluble
MSLRFEGIYTPAVTPHTPDGDIDWAVFSEVLESLIEANVHGIIIGGSTGEYYAQTAEERLKLAAHAKDVMGNRVQLIIGTGAIRTEDAVLFAKDAKALKADAILVTTPPYALPTDQENAIHALTIDRAANMPIMLYNYPGRMGVQMNEDYLARVGKSKNVIAIKESSGEMGRVHLLAREFPHIALSCGWDDQALEFFAWGARSWVCAGSNFLPREHVALYEACVIEKNFDKGRQIMSAMMPLMHALDGGKFVQCIKFGCELNGLKVGDVRAPLRPLNAEDKRSLQTVIANVKEGHHHHHH | not soluble
MRSQSTHSQSMRSDIYLLLATLLRDVPSAELCAFLAELDFEANGTEMAKAWQAMSAAAQNAQADSLADEYQELFIGIGRGEVVPFASWHLTGSLMEKPLADIRDDLSRLGLERDEQVREPEDHISALCETMAYLCEESGDENAAEETQQAFFNRHIAPWFGKLVSQIRQAPHAQFYLAVAQLLDAFLSLEQVAMTQAPSSRKNRYRIEVKNLTDKAEQ | not soluble
MSLDFRSADFLRTHISDTMAFYHPRCIDSAGGFFHYFRDDGSIYNATHRHLVSSTRFVFNYAMAYLQFGTAEYLDAVHHGLSYVRDVHRNPATGGYAWTLCDDRVEDDTNHCYGLAFVMLAYSCGLKVGIKQAREWMDETWCLLERHFWDAEYGLYKDEADAQWNFTRYRGQNANMHMCEAMLAAYEASGEQRYLERALVLADRITRRQAAKADGLVWEHYDMRWEVDWDYNRDNPKHLFRPWGFQPGHQTEWAKLLLILDRYIEVEWLVPVARSLFDVAVARSWDAVRGGLCYGFAPDGTICDDDKYFWVQAESLAAAALLATRSGDERYWQWYDRLWAYAWQHMVDHRYGAWYRLLDGDNRKYNDEKSPAGKTDYHTMGACHEVLNVVWTKSEGHHHHHH | soluble
MKKVLLVNGPNLNRLGVREVNVYGKGTLATLEADMKQEAEAMGVELECFQSNHEGAIIDRIHEAEDIYEGIILNPGAFTHYSYAIRDAIASISIPVIEVHISNIHQRESFRHESVTAAVCAGQIVGFGFYGYKLALFALMEKLREA | not soluble
MSLGETAWCRHPLAYLVEAADDICYALLDLEDGLEMGILRFDEVAEILIQIAGGAPEGYDGMRARGVSQRRRIATLRGAAMERAVNDVAAVFVAHESALLGGTLSEDLLELCHPDLGWGVGTAKRIARERIFQNERKAKLEIGAYTTLGILLEAFIGAAHELHYSGQSSFKHQRVLALIGENTPKSSWSLYASYRRMLDFIGGMTDHYAVDLAQEMGGRLEGHHHHHH | not soluble
MSVVGEERKRTILEKVEFKGKVKVSELAREFAVSTETIRRYLEELDREKKLKKVYGGAVQLPGAGVEAPMLEREMLHIEEKKRIGYKAATFVEDGDVIAIDDGSTPLQMVPYLVHRKNLTIVTSSFPVATQLISSINKKMFHGEVLFIGGKVSPKHSRVSGSISQQVIQQFHFHKAFVSIDGLLPSFGVSSFELEKAKLSEAMMKLAEKTYILCDHTKVGVKGNYRIAAISRIQHVICDKKMPYSFEEELMKHNIQWTVCLEHHHHHH | soluble
MAHHHHHHMDSEETINLAVKYAKEAVVEDEKKNYKEALNLYIQSLQYFNFFCKYEKNSNIRDLILKKMEVYMTRAENLKEMLNKKDSIENKEKITNTEETKENMKKQIKQFILNKNNNIKWSDVCGLETAKEVLKEAIIFPLKFPKLFNSSTLPYKGILLYGPPGTGKTFLALACSNECNMNFFNVSSSDLVSKYQGESEKYIKCLFETAKEHSPAIIFIDEIDSLCGSRTDGENESTRRIKTEFLINMSGLTNYKNNIIVMGATNTPWSLDSGFRRRFEKRIYIPLPNIYARAKIFEKYINQNENNNISKEDIKQFATLTENYTGADIDILCRDAVYMPVKKCLLSKFFKQVKKNNKICYTPCSPGDSDPTKVEKNVMSLSENELSLPPLTVQDFKTAISNAKPSLSVDDIKKYEEWTHQYGMNGT | not soluble
EKKYFEIHGVPSIIWGNPSSKLYIYIHGQCGNKEEAEAFANIAVPHECQVLSVDLPEHGERKREKNSFNPWHVVPELVSIMEYAKCHWNQISLYANSIGAWFSMLSFEKENLRECIFVSPILDMQQLISNMMLWANVSEEQLKHELIIPTSFGHTLSWEYLQYVKQHPITQWNVPTKILYGKHDELTEIGVVEKFVEKFNCNLTIIENGKHWFNTPQELNSLYEWLNTLVK | not soluble
MSLKRKVLFTAVMVLAGLQLLSGCGKTEASANDTVVLRYAYASNSQPVIDSMKKFGELVEEKTDGKVQIEYFPDGQLGGETELIELTQTGAIDFAKVSGSALESFSKDYSVFAIPYIFDNEKHFFKVMDNQALMQPVYDSTKKLGFVGLTYYDSGQRSFYMSKGPVTSPDDLKGKKIRVMQSETAIKMVELLGGSPVPMGSSEVYTSLQSNLINGAENNEFVLYTAGHGGVAKYYSYDEHTRVPDIVIMNEGTKERLTAKQEQAIEEAAKESTAFEKTVFKEAVEEEKKKAQAEYGVVFNQVDSEPFQKLVQPLHESFKNSSEHGELYQAIRQLADEGGSHHHHHH | soluble
MESSIKVGISSCVLGERVRFDSGHKVSNFVTKELSNYFDFVSVCPEVGVGMPVPRPTIRLISNEERIALVETKNPDNDHTDNMLTYSANKVDELQNEQLCGYIVCAKSPTCGMERVKVYSKNNAAKEGVGLYTKTLMEKMPWLPVEEDGRLNDPVLKENFITRIYCLNDFYESMAGEPTRGKIIDFHSRYKLTLMAHHPESYRSLGRLVADVASYEIDEFYREYRLGLMTALSNRASRKNNTNVLMHLQGYFKRSLNKDEKEELATVIQDYRTGTLPLLAPLTLIKHYLNAYPDEYLQRQKFLEPHPQEMRLRYGL | not soluble
MSLTQVPAGQFTATKNLRPAAKPGKDVVLRVYSDFQCPYCQKLELETMPALLRALPDDVRVEFHQFPLEQIHPLARPAAEASECAAQQGRFWDYKDALFRDRSWLQNNPNETFLRLAGDLKLDPGKFKDCLALRGGKAGVDAGLAEAQQLGLNATPTVFVDGYRVGNPFDTAAVLQLIDVARATREGHHHHHH | soluble
MSKRKAEEAPAPKLASIFTKKVKPAEEDNNQKSWKFVCWNVAGLRACVKKSDFKEVLAEEPDLVFLGETKCKEWPPEMEETFKNYTKTLVVSTEKNGGYAGVGLLSKCAPMKVHKGIGDPEFDTAGRLIIAEFSKFYFIGAYVPNSGAKLVNLEKRGRWEKLLTEKMKEMDEKKPVIYGGDLNVAHNEIDLKNPESNRNKTAGFTDQERGWFSEMLELGFTDTFRAMHPDEKKYSFWSYLANSRQKDVGWRLDYYVVSNRIMNKVKRSDIMSSVMGSDHAPVVMQIDF | soluble
MGSDKIHHHHHHMIVKDYRREFEALAKAYEKAGGDVSKFLDRRIASIIISGDKVIGLNGVEGVELTPYRIENGVQVDMRIKEGVVVEYPVHVCTGYLEKKGLQRVVFNIRLEKNAKAIFVAHCVFPWTEDFTHDALMNVELEEGAWMEYHDEHTHSETGSINLITRSIARVGERAVYRNTFTLVKTRIGTLRVFMDASLEKDAVGELYTKVKAVEDDDVEVKEILRLNGMGARGLAKTNAVAIDRAKVSVVNEVYGNAPHTRGHVECLEIAKGDGVDVRALPVLVVKNDSSELTHEASIGRVNAKQLETLMAKGLTEEEATEMIIKGILT | not soluble
MGSDKIHHHHHHMKSNGHATRLRTTPSLGGQSHDTRARMIEAAIEVFGSVGYDGATTRQLAERAGVNQAAIPYHFGGKRELYVAAAQAIADYMRSRIEPLIDELRTASVDPVGHIDAVVMRFFQFIAGDEEPEAWTVFFVRCERDADDAFRIIYYQSVARFQAALIAEVAAATGRSPDDEDLKVRVAVVLGAISNFRTLRNVMLSSLGWDTFDAERKLTVETAVRRLALAELLGIHADAPSDVHPPLGSASGAQPSPTARP | not soluble
AGKATANAPTDAAITAASDFAALEKACAGRLGVTLLDTASGRRIGHRQDERFPMCSTFKSMLAATVLSQAERMPALLDRRVPVGEADLLSHAPVTRRHAGKDMTVRDLCRATIITSDNTAANLLFGVVGGPPAVTAFLRASGDTVSRSDRLEPELNSFAKGDPRDTTTPAAMAATLQRVVLGEVLQPASRQQLADWLIDNETGDACLRAGLGKRWRVGDKTGSNGEDARNDIAVLWPVAGGAPWVLTAYLQAGAISYEQRASVLAQVGRIADRLIG | soluble
MGSDKIHHHHHHMSFVSYAQNFEDVMLWRALRHIKNGYYIDVGAFSADEDSVTRAFYDQGWSGINIEPNPKYHEELVARRDRDINLRVAVSDRAEDRALYVIDDTGLTTLEPDIAEMHREKGFSKIDVVVPALTLEEIWTTHVPQDQDVHFLKIDVEGHELPVIKGLDWDRHRPWIVVVESTLPATQQLSETGIVEALAKADYEAVYWDGLNRYYVAKERAELTKYFDDPPNVFDGFRRSSEVEFEQRALQAEAELYLEREHVVRISKENWDHVHHALEVKFSALQEAMAAEAQAARRDVTQELVELRMQLSKQGMTSSFWTRFFFRPTGKPKKALRRLLFHTNGKPRGIFRNRVLKSNGQPRPAFLRWMASAEYQQLRRAVKVAASDESQHVLESGASTLSQNEGVFVGVLQSARTEKSH | not soluble
